# How the values were obtained:
# human IL-13 [1] = molecular target: T1, human IL-13 (human, UniProt P35225 25-146, limits assumed); experiment: SPR (Biacore 8K+), antibody captured, human IL-13 as analyte, 37 C; less than 5% decay in 5,400 s, KD estimated
# T1 construct: The KinExA antigen was detected with an anti-HIS IgG, so it probably carried a HIS tag; also called Interleukin-13; hIL-13
# human IL-13 [2] = molecular target: T1, human IL-13; experiment: cell-based or functional assay
# T1 sequence (P35225 other isoform, or with tags, fused parts or gaps limits assumed): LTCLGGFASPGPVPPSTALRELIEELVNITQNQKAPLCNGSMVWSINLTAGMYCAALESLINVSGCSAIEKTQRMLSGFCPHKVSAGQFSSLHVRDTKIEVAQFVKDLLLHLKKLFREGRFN
Binder,Kd (human IL-13 [1]),"IC50, HEK-Blue IL-13Ra1/IL-4Ra STAT6-SEAP reporter assay (human IL-13 [2])"
"AbE (antibody, human IgG1, kappa, V domains shown) VH: QVTLRESGPALVKPTQTLTLTCTVSGASLSAYSVNWIRQPPGKALEWLAMIWGDGKIVYNSALKSRLTISKDTSKNQVVLTMTNMDPVDTATYYCAGDGYFPYAMDNWGQGSLVTVSS VL: DIVMTQSPDSLSVSLGERATINCRASKSVDSYGHSYMHWYQQKPGQPPKLLIYWASNLESGVPDRFSGSGSGTDFTLTISSLQAEDVAVYYCQQNNEDPRTFGGGTKVEIKR",< 15 pM,0.118 µg/mL
"AbK (antibody, human IgG1, kappa, V domains shown) VH: QVTLRESGPALVKPTQTLTLTCTVSGSSLSRYSVNWIRQPPGKALEWLAMIWGDGKIVYNSALKSRLTISKDTSKNQVVLTMTNMDPVDTATYYCAGDGYYPYAMDNWGQGSLVTVSS VL: DIVMTQSPDSLSVSLGERATINCRASQSVDSYGNSYMHWYQQKPGQPPKLLIYLASNLESGVPDRFSGSGSGTDFTLTISSLQAEDVAVYYCQQNNEDPRTFGGGTKVEIKR",< 15 pM,0.172 µg/mL
"AbO (antibody, human IgG1, kappa, V domains shown) VH: QVTLRESGPALVKPTQTLTLTCTVSGYSLSAYSVNWIRQPPGKALEWLAMIWGDGKIVYNSALKSRLTISKDTSKNQVVLTMTNMDPVDTATYYCAGDGYFPYAMDVWGQGSLVTVSS VL: DIVMTQSPDSLSVSLGERATINCRASKSVDYYGHSYMHWYQQKPGQPPKLLIYLASNLESGVPDRFSGSGSGTDFTLTISSLQAEDVAVYYCQQNNEDPRTFGGGTKVEIKR",< 15 pM,0.165 µg/mL
"AbF (antibody, human IgG1, kappa, V domains shown) VH: QVTLRESGPALVKPTQTLTLTCTVSGASLSRYSVNWIRQPPGKALEWLAMIWGDAKIVYNSALKSRLTISKDTSKNQVVLTMTNMDPVDTATYYCAGDGYFPYAMDNWGQGSLVTVSS VL: DIVMTQSPDSLSVSLGERATINCRASESVDSYGNSYMHWYQQKPGQPPKLLIYLASNLESGVPDRFSGSGSGTDFTLTISSLQAEDVAVYYCQQNNEDPRTFGGGTKVEIKR",< 15 pM,0.126 µg/mL
"AbI (antibody, human IgG1, kappa, V domains shown) VH: QVTLRESGPALVKPTQTLTLTCTVSGASLSRYSVNWIRQPPGKALEWLAMIWGDGKIVYNSALKSRLTISKDTSKNQVVLTMTNMDPVDTATYYCAGDGFYPYAMDNWGQGSLVTVSS VL: DIVMTQSPDSLSVSLGERATINCRASKSVDSYGNSYMHWYQQKPGQPPKLLIYLASNLESGVPDRFSGSGSGTDFTLTISSLQAEDVAVYYCQQNNEDPRTFGGGTKVEIKR",< 15 pM,0.223 µg/mL
"AbN (antibody, human IgG1, kappa, V domains shown) VH: QVTLRESGPALVKPTQTLTLTCTVSGASLSAYSVNWIRQPPGKALEWLAMIWGDGKIVYNSALKSRLTISKDTSKNQVVLTMTNMDPVDTATYYCAGDGYYPYAMDNWGQGSLVTVSS VL: DIVMTQSPDSLSVSLGERATINCRASESVDYYGHSYMHWYQQKPGQPPKLLIYLASNLESGVPDRFSGSGSGTDFTLTISSLQAEDVAVYYCQQNNEDPRTFGGGTKVEIKR",< 15 pM,0.14 µg/mL
"AbP (antibody, human IgG1, kappa, V domains shown) VH: QVTLRESGPALVKPTQTLTLTCTVSGASLSAYSVNWIRQPPGKALEWLAMIWGDGKVVYNSALKSRLTISKDTSKNQVVLTMTNMDPVDTATYYCAGDGYFPYAMDHWGQGSLVTVSS VL: DIVMTQSPDSLSVSLGERATINCRASKSVDSYGNSYMHWYQQKPGQPPKLLIYWASNLESGVPDRFSGSGSGTDFTLTISSLQAEDVAVYYCQQNNEDPRTFGGGTKVEIKR",< 15 pM,0.152 µg/mL

# Next, values leading:
Kd (human IL-13 [1]),"IC50, HEK-Blue IL-13Ra1/IL-4Ra STAT6-SEAP reporter assay (human IL-13 [2])",Binder
< 15 pM,0.136 µg/mL,"AbM (antibody, human IgG1, kappa, V domains shown) VH: QVTLRESGPALVKPTQTLTLTCTVSGASLSAYSVNWIRQPPGKALEWLAMIWGDGKIVYNSALKSRLTISKDTSKNQVVLTMTNMDPVDTATYYCAGDGYFPYAMDNWGQGSLVTVSS VL: DIVMTQSPDSLSVSLGERATINCRASKSVDYYGRSYMHWYQQKPGQPPKLLIYLASNLESGVPDRFSGSGSGTDFTLTISSLQAEDVAVYYCQQNNEDPRTFGGGTKVEIKR"
< 15 pM,0.167 µg/mL,"AbJ (antibody, human IgG1, kappa, V domains shown) VH: QVTLRESGPALVKPTQTLTLTCTVSGASLSAYSVNWIRQPPGKALEWLAMIWGDRKKVYNSALKSRLTISKDTSKNQVVLTMTNMDPVDTATYYCAGDGYFPYAMDLWGQGSLVTVSS VL: DIVMTQSPDSLSVSLGERATINCRASKSVDSYGHSYMHWYQQKPGQPPKLLIYWASNLESGVPDRFSGSGSGTDFTLTISSLQAEDVAVYYCQQNNEDPRTFGGGTKVEIKR"
< 15 pM,0.107 µg/mL,"AbH (antibody, human IgG1, kappa, V domains shown) VH: QVTLRESGPALVKPTQTLTLTCTVSGASLSRYSVNWIRQPPGKALEWLAMIWGDGKIVYNSALKSRLTISKDTSKNQVVLTMTNMDPVDTATYYCAGDGYYPYAMDNWGQGSLVTVSS VL: DIVMTQSPDSLSVSLGERATINCRASKSVDSYGNSYMHWYQQKPGQPPKLLIYRASNLESGVPDRFSGSGSGTDFTLTISSLQAEDVAVYYCQQNNEDPRTFGGGTKVEIKR"
< 15 pM,0.32 µg/mL,"AbL (antibody, human IgG1, kappa, V domains shown) VH: QVTLRESGPALVKPTQTLTLTCTVSGFSLSRYSVNWIRQPPGKALEWLAMIWGDGKIVYNSALKSRLTISKDTSKNQVVLTMTNMDPVDTATYYCAGDGYYPYAMDNWGQGSLVTVSS VL: DIVMTQSPDSLSVSLGERATINCRASKSVDSYGRSYMHWYQQKPGQPPKLLIYLASNLESGVPDRFSGSGSGTDFTLTISSLQAEDVAVYYCQQNNEDPRTFGGGTKVEIKR"

# From patent publication US20260116963A1 (GENERATE BIOMEDICINES, published 2026)
